Article PMC10639101

The substances below were run against SecYEG labeled at SecY residue 292 with AF488 (E. coli) (UniProt P0AGA2) (assay: FRET or BRET).
Substance “SecA-PhoA chimera labeled at PhoA residue 2 with AF647” has an FRET efficiency of 0.25. “SecA-PhoA chimera labeled at PhoA residue 22 with AF647” showed an FRET efficiency of 0.46. “SecA-PhoA chimera labeled at PhoA residue 37 with AF647” was tested, and the FRET efficiency was 0.24. For “SecA-PhoA chimera labeled at PhoA residue 45 with AF647”, the FRET efficiency was 0.3.
